Data published in US20130172533A1 (INDUSTRIAL TECHNOLOGY RESEARCH INSTITUTE, published 2013).

T1: human CD34 surface antigen on KG1a cells (human, UniProt P28906 32-385)
T1 construct: whole, on cells; The target was always presented on KG1a cells; No recombinant CD34 was used; also called surface antigen CD34; CD34 antigen
T1 sequence (looked up): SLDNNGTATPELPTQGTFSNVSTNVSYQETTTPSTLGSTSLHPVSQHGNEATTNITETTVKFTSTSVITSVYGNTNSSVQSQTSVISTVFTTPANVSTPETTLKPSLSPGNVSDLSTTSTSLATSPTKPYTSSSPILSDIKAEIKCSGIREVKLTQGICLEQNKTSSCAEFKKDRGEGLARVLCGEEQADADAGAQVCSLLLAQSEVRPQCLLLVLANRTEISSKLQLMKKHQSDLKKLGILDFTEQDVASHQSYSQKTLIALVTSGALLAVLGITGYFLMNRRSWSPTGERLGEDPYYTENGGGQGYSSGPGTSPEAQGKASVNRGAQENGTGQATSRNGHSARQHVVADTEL


Biological target: T1, human CD34 surface antigen on KG1a cells
Experiment: flow cytometry, antibody titration on CD34+ KG1a cells
Procedure: KG1a cells expressing the surface antigen CD34 were used for determining the antibody binding affinity. The antibody in aliquots were individually added into KG1a cells (about 1×10⁶ cells) and reacted at 4° C. for 1 hour. The cells were washed with the FACS buffer (DPBS buffer with 2% fetus bovine serum) three times and then treated with the goat anti-mouse IgG (H+L) Alexa Fluor 488 responsive to mMy10 IgG and the goat anti-human IgG (H+L) Alexa Fluor 647 responsive to hMy10 IgG at 4° C. for 1 hour. The cells were further washed with the FACS buffer and analyzed under the FACSCalibur flow cytometer.
For determining the binding affinity of hMy10 IgG and mMy10 IgG to the surface antigen CD34 of human stem cells, a KG1a cell line was used as the cell expressing the surface antigen CD34.

Kd [nM] | Molecule
6.7 | anti-My10 murine monoclonal antibody (mMy10 IgG)
6.9 | humanized My10 IgG (hMy10 IgG) (antibody, V domains shown, also called humanized My10 (hMy10) IgG1; humanized anti-human CD34 monoclonal antibody) VH: EVQLVESGGGLVQPGGSLRLSCAVSGFSLTSHGVHWVRQAPGKGLEWLGVIWGAGRTDYNAAFISRLSISRDISKSQVYLQMNSLRAEDTAVYYCARNRYESYFDYWGQGTLVTVSS VL: DIQMTQSPSSLSASVGDRVTITCRSSQNLVHSNGNTYLHWYQQKPGKAPKLLIYKVSNRFSGVPDRFSGSGSGTEFTLTISSLQPEDFATYYCSQSTHVPLTFGQGTKVEIKR
